Data set [1] has as its system HeLa Kyoto. In words: solubility in G1/S (NP-40 vs SDS abundance) (log2 ratio); higher = more soluble. Particulars: cell cycle stage: G1/S.
In data set [2] the test system is HeLa Kyoto. The data set is described as follows: melting temperature (median over replicates), in situ; higher = more thermally stable.
Data set [3] relates to HeLa Kyoto. In words: thermal stability score vs G1/S (z-score of summed log2 fold changes over temperatures); higher = more thermally stable than in G1/S.
For data set [4], the system named is HeLa Kyoto. The data set is described as follows: solubility change mitosis vs G1/S (difference of NP-40 vs SDS log2 ratios) (log2 ratio difference); higher = more soluble in mitosis.
Where [5] appears, read: cell cycle stage: early G1 (4.5 h after nocodazole release).
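Wherever melting temperature (median over replicates), in situ is given: HeLa Kyoto cells synchronized by double thymidine or nocodazole block, proteins quantified by TMT10plex mass spectrometry, three independent biological replicates.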
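Wherever solubility change mitosis vs G1/S (difference of NP-40 vs SDS log2 ratios) is given: synchronized HeLa Kyoto cells (double thymidine block for G1/S, nocodazole release for mitosis), protein amounts in NP-40 versus SDS lysates quantified by mass spectrometry, three biological replicates.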
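Wherever solubility in G1/S (NP-40 vs SDS abundance) is given: HeLa Kyoto cells arrested at G1/S by double thymidine block, proteins quantified by TMT10plex mass spectrometry in mild NP-40 versus SDS extracts, three biological replicates.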
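Wherever thermal stability score vs G1/S (z-score of summed log2 fold changes over temperatures) is given: synchronized HeLa Kyoto cells, proteins quantified by TMT10plex mass spectrometry, three biological replicates, mitosis taken 0.5 h after nocodazole release, G1/S directly after double thymidine block.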

As for “MASIWVGHRGTVRDYPDFSPSVDAEAIQKAIRGIGTDEKMLISILTERSNAQRQLIVKEYQAAYGKELKDDLKGDLSGHFEHLMVALVTPPAVFDAKQLKKSMKGAGTNEDALIEILTTRTSRQMKDISQAYYTVYKKSLGDDISSETSGDFRKALLTLADGRRDESLKVDEHLAKQDAQILYKAGENRWGTDEDKFTEILCLRSFPQLKLTFDEYRNISQKDIVDSIKGELSGHFEDLLLAIVNCVRNTPAFLAERLHRALKGIGTDEFTLNRIMVSRSEIDLLDIRTEFKKHYGYSLYSAIKSDTSGDYEITLLKICGGDD [ANXA3]”, the “solubility in G1/S (log2)” value in the data set on HeLa Kyoto [1] worked out at 0.2. Moreover, the melting temperature is 52.3 °C in the data set on HeLa Kyoto [2] (cell cycle stage: G1/S) and 52.2 °C in the data set with HeLa Kyoto [2] (cell cycle stage: mitosis). In addition, the thermal stability score in the data set with HeLa Kyoto [3] (setting [5]) was -0.635; with HeLa Kyoto [3] (cell cycle stage: mitosis), -1.21. In the data set with HeLa Kyoto [4], the “solubility change mitosis (log2)” value was -0.0404.
As for “MASKEMFEDTVEERVINEEYKIWKKNTPFLYDLVMTHALQWPSLTVQWLPEVTKPEGKDYALHWLVLGTHTSDEQNHLVVARVHIPNDDAQFDASHCDSDKGEFGGFGSVTGKIECEIKINHEGEVNRARYMPQNPHIIATKTPSSDVLVFDYTKHPAKPDPSGECNPDLRLRGHQKEGYGLSWNSNLSGHLLSASDDHTVCLWDINAGPKEGKIVDAKAIFTGHSAVVEDVAWHLLHESLFGSVADDQKLMIWDTRSNTTSKPSHLVDAHTAEVNCLSFNPYSEFILATGSADKTVALWDLRNLKLKLHTFESHKDEIFQVHWSPHNETILASSGTDRRLNVWDLSKIGEEQSAEDAEDGPPELLFIHGGHTAKISDFSWNPNEPWVICSVSEDNIMQIWQMAENIYNDEESDVTTSELEGQGS [RBBP7]”, the “solubility in G1/S (log2)” value in the data set with HeLa Kyoto [1] was found to be 0.0292. Moreover, the melting temperature in the data set on HeLa Kyoto [2] (cell cycle stage: G1/S) was found to be 53 °C; in the data set with HeLa Kyoto [2] (cell cycle stage: mitosis) it was 53.3 °C. Further, the thermal stability score in the data set with HeLa Kyoto [3] (setting [5]) was -0.845; with HeLa Kyoto [3] (cell cycle stage: mitosis), -1.83. In addition, the “solubility change mitosis (log2)” value in the data set with HeLa Kyoto [4] is -0.157.
In the case of “MASKGAGMSFSRKSYRLTSDAEKSRVTGIVQEKLLNDYLNRIFSSSEHAPPAATSRKPLNFQNLPEHLDQLLQVDNEEEESQGQVEGRLGPSTVVLDHTGGFEGLLLVDDDLLGVIGHSNFGTIRSTTCVYKGKWLYEVLISSQGLMQIGWCTISCRFNQEEGVGDTHNSYAYDGNRVRKWNVTTTNYGKAWAAGDIVSCLIDLDDGTLSFCLNGVSLGTAFENLSRGLGMAYFPAISLSFKESVAFNFGSRPLRYPVAGYRPLQDPPSADLVRAQRLLGCFRAVLSVELDPVEGRLLDKESSKWRLRGQPTVLLTLAHIFHHFAPLLRKVYLVEAVLMSFLLGIVEKGTPTQAQSVVHQVLDLLWLFMEDYEVQDCLKQLMMSLLRLYRFSPIVPDLGLQIHYLRLTIAILRHEKSRKFLLSNVLFDVLRSVVFFYIKSPLRVEEAGLQELIPTTWWPHCSSREGKESTEMKEETAEERLRRRAYERGCQRLRKRIEVVEELQVQILKLLLDNKDDNGGEASRYIFLTKFRKFLQENASGRGNMPMLCPPEYMVCFLHRLISALRYYWDEYKASNPHASFSEEAYIPPQVFYNGKVDYFDLQRLGGLLSHLRKTLKDDLASKANIVIDPLELQSTAMDDLDEDEEPAPAMAQRPMQALAVGGPLPLPRPGWLSSPTLGRANRFLSTAAVSLMTPRRPLSTSEKVKVRTLSVEQRTREDIEGSHWNEGLLLGRPPEEPEQPLTENSLLEVLDGAVMMYNLSVHQQLGKMVGVSDDVNEYAMALRDTEDKLRRCPKRRKDILAELTKSQKVFSEKLDHLSRRLAWVHATVYSQEKMLDIYWLLRVCLRTIEHGDRTGSLFAFMPEFYLSVAINSYSALKNYFGPVHSMEELPGYEETLTRLAAILAKHFADARIVGTDIRDSLMQALASYVCYPHSLRAVERIPEEQRIAMVRNLLAPYEQRPWAQTNWILVRLWRGCGFGYRYTRLPHLLKTKLEDANLPSLQKPCPSTLLQQHMADLLQQGPDVAPSFLNSVLNQLNWAFSEFIGMIQEIQQAAERLERNFVDSRQLKVCATCFDLSVSLLRVLEMTITLVPEIFLDWTRPTSEMLLRRLAQLLNQVLNRVTAERNLFDRVVTLRLPGLESVDHYPILVAVTGILVQLLVRGPASEREQATSVLLADPCFQLRSICYLLGQPEPPAPGTALPAPDRKRFSLQSYADYISADELAQVEQMLAHLTSASAQAAAASLPTSEEDLCPICYAHPISAVFQPCGHKSCKACINQHLMNNKDCFFCKTTIVSVEDWEKGANTSTTSSAA [RNF123]”, the “solubility in G1/S (log2)” value with HeLa Kyoto [1] was -0.366. For the same sequence, the melting temperature with HeLa Kyoto [2] (cell cycle stage: G1/S) stood at 50.4 °C; in the data set with HeLa Kyoto [2] (cell cycle stage: mitosis), 50.3 °C. The thermal stability score with HeLa Kyoto [3] (setting [5]) was -0.758; with HeLa Kyoto [3] (cell cycle stage: mitosis) it was 0.258. Also, the “solubility change mitosis (log2)” value in the data set on HeLa Kyoto [4] was determined as 0.0631.
Regarding “MASLDDPGEVREGFLCPLCLKDLQSFYQLHSHYEEEHSGEDRDVKGQIKSLVQKAKKAKDRLLKREGDDRAESGTQGYESFSYGGVDPYMWEPQELGAVRSHLSDFKKHRAARIDHYVVEVNKLIIRLEKLTAFDRTNTESAKIRAIEKSVVPWVNDQDVPFCPDCGNKFSIRNRRHHCRLCGSIMCKKCMELISLPLANKLTSASKESLSTHTSPSQSPNSVHGSRRGSISSMSSVSSVLDEKDDDRIRCCTHCKDTLLKREQQIDEKEHTPDIVKLYEKLRLCMEKVDQKAPEYIRMAASLNAGETTYSLEHASDLRVEVQKVYELIDALSKKILTLGLNQDPPPHPSNLRLQRMIRYSATLFVQEKLLGLMSLPTKEQFEELKKKRKEEMERKRAVERQAALESQRRLEERQSGLASRAANGEVASLRRGPAPLRKAEGWLPLSGGQGQSEDSDPLLQQIHNITSFIRQAKAAGRMDEVRTLQENLRQLQDEYDQQQTEKAIELSRRQAEEEDLQREQLQMLRERELEREREQFRVASLHTRTRSLDFREIGPFQLEPSREPRTHLAYALDLGSSPVPSSTAPKTPSLSSTQPTRVWSGPPAVGQERLPQSSMPQQHEGPSLNPFDEEDLSSPMEEATTGPPAAGVSLDPSARILKEYNPFEEEDEEEEAVAGNPFIQPDSPAPNPFSEEDEHPQQRLSSPLVPGNPFEEPTCINPFEMDSDSGPEAEEPIEEELLLQQIDNIKAYIFDAKQCGRLDEVEVLTENLRELKHTLAKQKGGTD [RBSN]”, the “solubility in G1/S (log2)” value with HeLa Kyoto [1] was found to be 0.33. The melting temperature in the data set with HeLa Kyoto [2] (cell cycle stage: G1/S) came to 50.7 °C; in the data set on HeLa Kyoto [2] (cell cycle stage: mitosis), 50.4 °C. Moreover, the thermal stability score in the data set with HeLa Kyoto [3] (setting [5]) is 0.55; in the data set on HeLa Kyoto [3] (cell cycle stage: mitosis), 1.28. Also, in the data set with HeLa Kyoto [4], the “solubility change mitosis (log2)” value was -0.00797.
In the case of “MASNMDREMILADFQACTGIENIDEAITLLEQNNWDLVAAINGVIPQENGILQSEYGGETIPGPAFNPASHPASAPTSSSSSAFRPVMPSRQIVERQPRMLDFRVEYRDRNVDVVLEDTCTVGEIKQILENELQIPVSKMLLKGWKTGDVEDSTVLKSLHLPKNNSLYVLTPDLPPPSSSSHAGALQESLNQNFMLIITHREVQREYNLNFSGSSTIQEVKRNVYDLTSIPVRHQLWEGWPTSATDDSMCLAESGLSYPCHRLTVGRRSSPAQTREQSEEQITDVHMVSDSDGDDFEDATEFGVDDGEVFGMASSALRKSPMMPENAENEGDALLQFTAEFSSRYGDCHPVFFIGSLEAAFQEAFYVKARDRKLLAIYLHHDESVLTNVFCSQMLCAESIVSYLSQNFITWAWDLTKDSNRARFLTMCNRHFGSVVAQTIRTQKTDQFPLFLIIMGKRSSNEVLNVIQGNTTVDELMMRLMAAMEIFTAQQQEDIKDEDEREARENVKREQDEAYRLSLEADRAKREAHEREMAEQFRLEQIRKEQEEEREAIRLSLEQALPPEPKEENAEPVSKLRIRTPSGEFLERRFLASNKLQIVFDFVASKGFPWDEYKLLSTFPRRDVTQLDPNKSLLEVKLFPQETLFLEAKE [FAF1]”, the “solubility in G1/S (log2)” value in the data set with HeLa Kyoto [1] came out at 0.0926. In addition, the values for the melting temperature in the data set with HeLa Kyoto [2] (cell cycle stage: G1/S) and in the data set on HeLa Kyoto [2] (cell cycle stage: mitosis) were 53.6 °C and 53.5 °C, respectively. Further, the thermal stability score turned out to be 0.291 with HeLa Kyoto [3] (setting [5]) and 1.77 in the data set on HeLa Kyoto [3] (cell cycle stage: mitosis). In the data set with HeLa Kyoto [4], the “solubility change mitosis (log2)” value was -0.147.

The record behind these values is the supplement of paper PMC5998384.
